In patent publication US20240132578A1:

Legend:
Assay in all cases: cell-based or functional assay
[1] = molecular target: HIV-1 Env of pseudovirus MGRM-D-013 (HIV-1)
[2] = molecular target: HIV-1 Env of pseudovirus MGRM-D-020 (HIV-1)
[3] = molecular target: HIV-1 Env of pseudovirus MGRM-D-022 (HIV-1)
[4] = molecular target: HIV-1 Env of pseudovirus MGRM-F1-017 (HIV-1)
[5] = molecular target: HIV-1 envelope glycoprotein (Env) of isolate MG RM-AG-008 (HIV-1)
[6] = molecular target: HIV-1 92UG005 envelope (Env) on pseudovirus (HIV-1)
[7] = molecular target: HIV-1 APV-13 envelope (Env) on pseudovirus (HIV-1)
[8] = molecular target: HIV-1 APV-6 envelope (Env) on pseudovirus (HIV-1)
[9] = molecular target: HIV-1 Env of isolate APV_17, clade B (HIV-1)
[10] = molecular target: HIV-1 Env of isolate MGRM-Chronic-B-008, clade B (HIV-1)
[11] = molecular target: HIV-1 Env of isolate MGRM-D-014 (clade D pseudovirus) (HIV-1)
[12] = molecular target: HIV-1 Env of isolate MGRM-D-016 (clade D pseudovirus) (HIV-1)
[13] = molecular target: HIV-1 Env of isolate MGRM-D-022 (clade D pseudovirus) (HIV-1)
[14] = molecular target: HIV-1 IAVI-C3 envelope (Env) on pseudovirus (HIV-1)
[15] = molecular target: HIV-1 MGRM-AE-006 Env (pseudovirus) (HIV-1)
[16] = molecular target: HIV-1 MGRM-AG-003 Env (pseudovirus) (HIV-1)
[17] = molecular target: HIV-1 MGRM-AG-012 Env (pseudovirus) (HIV-1)
[18] = molecular target: HIV-1 envelope glycoprotein (Env) of isolate MGRM-C-001 (HIV-1)
[19] = molecular target: HIV-1 envelope glycoprotein (Env) of isolate MGRM-C-008 (HIV-1)
[20] = molecular target: HIV-1 Env of isolate 92RW020 (Clade A) (HIV-1)
[21] = molecular target: HIV-1 Env of isolate 92TH021 (pseudovirus) (HIV-1)
[22] = molecular target: HIV-1 Env of isolate 94 KE 105 (pseudovirus) (HIV-1)
[23] = molecular target: HIV-1 Env of isolate 98CN009 (HIV-1)
[24] = molecular target: HIV-1 Env of isolate MGRM-C-014 (subtype C), on pseudovirus (HIV-1)
[25] = molecular target: HIV-1 Env of isolate MGRM-C-024 (subtype C), on pseudovirus (HIV-1)
[26] = molecular target: HIV-1 Env of isolate MGRM-C-025 (subtype C), on pseudovirus (HIV-1)
[27] = molecular target: HIV-1 Env of isolate MGRM-G-024 (subtype G) (HIV-1)

Sequence of PGT-141 (4964_G22; 4993_K13) (antibody) (VH): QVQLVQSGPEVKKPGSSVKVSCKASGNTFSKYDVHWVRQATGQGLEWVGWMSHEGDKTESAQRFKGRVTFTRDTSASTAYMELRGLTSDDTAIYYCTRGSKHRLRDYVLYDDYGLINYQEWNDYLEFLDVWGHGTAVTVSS
Sequence of PGT-141 (4964_G22; 4993_K13) (antibody) (VL): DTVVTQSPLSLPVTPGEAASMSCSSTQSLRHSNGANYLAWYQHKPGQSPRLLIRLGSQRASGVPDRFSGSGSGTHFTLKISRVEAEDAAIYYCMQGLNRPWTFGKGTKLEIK
Sequence of 1443_C16 (PG16) (TCN-116) (antibody) (VH): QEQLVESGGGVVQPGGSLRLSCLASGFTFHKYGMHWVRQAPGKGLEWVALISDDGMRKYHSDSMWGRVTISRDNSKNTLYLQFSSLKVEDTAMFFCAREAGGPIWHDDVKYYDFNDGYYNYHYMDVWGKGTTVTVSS
Sequence of 1443_C16 (PG16) (TCN-116) (antibody) (VL): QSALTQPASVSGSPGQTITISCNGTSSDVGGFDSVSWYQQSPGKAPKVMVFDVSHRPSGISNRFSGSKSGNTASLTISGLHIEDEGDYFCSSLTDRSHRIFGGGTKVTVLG
Sequence of PGT-144 (4970_K22) (antibody) (VH): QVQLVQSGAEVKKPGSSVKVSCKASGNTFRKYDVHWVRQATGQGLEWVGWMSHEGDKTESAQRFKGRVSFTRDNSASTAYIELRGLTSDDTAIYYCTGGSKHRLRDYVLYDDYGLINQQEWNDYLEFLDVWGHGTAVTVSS
Sequence of PGT-144 (4970_K22) (antibody) (VL): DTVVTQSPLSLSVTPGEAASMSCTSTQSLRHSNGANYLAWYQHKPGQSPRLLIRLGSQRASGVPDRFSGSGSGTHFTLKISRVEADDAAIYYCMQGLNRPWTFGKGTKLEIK
Sequence of PGT-142 (4995_E20) (antibody) (VH): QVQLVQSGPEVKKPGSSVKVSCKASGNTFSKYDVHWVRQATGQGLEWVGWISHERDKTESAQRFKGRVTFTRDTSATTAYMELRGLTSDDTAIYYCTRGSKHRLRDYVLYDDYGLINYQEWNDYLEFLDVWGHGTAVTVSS
Sequence of PGT-145 (4995_P16) (antibody) (VH): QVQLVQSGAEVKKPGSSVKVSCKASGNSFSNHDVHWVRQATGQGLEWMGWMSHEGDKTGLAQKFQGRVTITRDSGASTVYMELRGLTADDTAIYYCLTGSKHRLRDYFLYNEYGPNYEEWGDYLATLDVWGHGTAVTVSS
Sequence of PGT-145 (4995_P16) (antibody) (VL): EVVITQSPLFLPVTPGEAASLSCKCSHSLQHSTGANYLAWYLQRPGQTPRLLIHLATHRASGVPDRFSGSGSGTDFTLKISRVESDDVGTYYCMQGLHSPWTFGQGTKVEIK
Sequence of PGT-143 (4980_N08) (antibody) (VH): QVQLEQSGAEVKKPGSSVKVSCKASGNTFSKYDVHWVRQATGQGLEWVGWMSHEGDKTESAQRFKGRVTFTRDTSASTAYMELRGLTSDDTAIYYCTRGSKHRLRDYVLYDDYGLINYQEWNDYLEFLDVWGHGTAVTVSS
Sequence of PGT-143 (4980_N08) (antibody) (VL): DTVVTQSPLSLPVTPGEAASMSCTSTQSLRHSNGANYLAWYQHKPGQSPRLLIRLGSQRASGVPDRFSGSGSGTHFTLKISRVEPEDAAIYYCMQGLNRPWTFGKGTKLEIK

| Substance | IC50, pseudovirus neutralization [1] [µg/mL] | IC50, pseudovirus neutralization [2] [µg/mL] | IC50, pseudovirus neutralization [3] [µg/mL] | IC50, pseudovirus neutralization [4] [µg/mL] | IC50 [5] [µg/mL] | neutralization IC50 [6] [µg/mL] | neutralization IC50 [7] [µg/mL] | neutralization IC50 [8] [µg/mL] | IC50 (µg/ml), pseudovirus neutralization [9] [µg/mL] | IC50 (µg/ml), pseudovirus neutralization [10] [µg/mL] | IC50, pseudovirus neutralization [11] [µg/mL] | IC50, pseudovirus neutralization [12] [µg/mL] | IC50, pseudovirus neutralization [13] [µg/mL] | neutralization IC50 [14] [µg/mL] | IC50 (µg/ml), pseudovirus neutralization [15] [µg/mL] | IC50 (µg/ml), pseudovirus neutralization [16] [µg/mL] | IC50 (µg/ml), pseudovirus neutralization [17] [µg/mL] | IC50 (µg/ml), pseudovirus neutralization [18] [µg/mL] | IC50 (µg/ml), pseudovirus neutralization [19] [µg/mL] | IC90 (neutralization of pseudovirus) [20] [µg/mL] | other results |
| --- | --- | --- | --- | --- | --- | --- | --- | --- | --- | --- | --- | --- | --- | --- | --- | --- | --- | --- | --- | --- | --- |
| PGT-141 (4964_G22; 4993_K13) (antibody) | 0.179 | > 50 | > 50 | 30.8 | 19.2 | – | – | – | – | – | – | – | – | – | – | – | – | – | – | – | – |
| PGT-145 (4995_P16) (antibody) | 3.48 | 10 | 34.3 | 0.286 | 0.244 | – | – | – | – | – | – | – | – | – | – | – | – | – | – | – | – |
| 1495_C14 (PGC14) (antibody) | – | – | – | – | – | > 50 | > 50 | 7.41 | > 50 | > 50 | 48 | > 50 | > 50 | > 50 | > 50 | > 50 | > 50 | > 50 | > 50 | – | – |
| 2F5 (antibody) | – | – | – | – | – | 11.8 | 2.8 | 0.1 | 4.61 | > 50 | 2.22 | 9.85 | 8.45 | > 50 | 0.18 | 0.14 | 0.33 | > 50 | > 50 | 27.7 | – |
| VRC01 (antibody) | 0.087 | 0.192 | > 50 | 1.08 | 0.124 | – | – | – | – | – | – | – | – | – | – | – | – | – | – | – | IC50 (µg/mL), single-round pseudovirus neutralization [21]: 0.616 µg/mL; IC50 (µg/mL), single-round pseudovirus neutralization [22]: 0.499 µg/mL; IC50 (µg/mL), pseudovirus neutralization [23]: 0.346 µg/mL; IC50, single-round pseudovirus neutralization [24]: > 50 µg/mL; IC50, single-round pseudovirus neutralization [25]: 3.4 µg/mL; IC50, single-round pseudovirus neutralization [26]: 2.36 µg/mL; IC50 (µg/mL), pseudovirus neutralization [27]: 0.025 µg/mL |
| b12 (antibody) | – | – | – | – | – | > 50 | > 25 | > 25 | > 50 | 2.82 | > 50 | 1.12 | 17.6 | 5 | > 50 | > 50 | 10.4 | > 50 | 1.51 | > 50 | – |
| PGT-144 (4970_K22) (antibody) | > 50 | > 50 | > 50 | > 50 | > 50 | – | – | – | – | – | – | – | – | – | – | – | – | – | – | – | – |
| 4E10 (antibody) | – | – | – | – | – | 8.86 | 3.8 | 0.4 | 10.5 | 16.7 | 3.24 | 15.4 | 16.9 | 5 | 0.23 | 0.64 | 0.86 | 5.66 | 2.97 | 36.1 | – |
| PGT-143 (4980_N08) (antibody) | 0.386 | > 50 | > 50 | 26.3 | 34 | – | – | – | – | – | – | – | – | – | – | – | – | – | – | – | – |
| 2G12 (antibody) | – | – | – | – | – | > 50 | 23.9 | 5.3 | > 50 | 0.55 | > 50 | > 50 | > 50 | > 50 | > 50 | > 50 | 1.94 | 2.93 | > 50 | 6.23 | – |
| 1443_C16 (PG16) (TCN-116) (antibody) | – | – | – | – | – | > 50 | > 50 | 0.08 | 24.8 | 0.73 | 0.003 | 0.02 | > 50 | 14.8 | 0.03 | > 50 | 25.1 | 16.8 | > 50 | > 50 | – |
| 4980_N08 (PGT-143) (antibody) | – | – | – | – | – | – | – | – | – | – | – | – | – | – | – | – | – | – | – | – | IC50 (µg/mL), single-round pseudovirus neutralization [21]: 0.003 µg/mL; IC50 (µg/mL), single-round pseudovirus neutralization [22]: 0.368 µg/mL; IC50 (µg/mL), pseudovirus neutralization [23]: 10.2 µg/mL; IC50, single-round pseudovirus neutralization [24]: 8.81 µg/mL; IC50, single-round pseudovirus neutralization [25]: 0.05 µg/mL; IC50, single-round pseudovirus neutralization [26]: 0.336 µg/mL; IC50 (µg/mL), pseudovirus neutralization [27]: 0.048 µg/mL |
| PGT-142 (4995_E20) (antibody) | 0.221 | > 50 | > 50 | 23.5 | 12.1 | – | – | – | – | – | – | – | – | – | – | – | – | – | – | – | – |
| 4993_K13 (PGT-141) (antibody) | – | – | – | – | – | – | – | – | – | – | – | – | – | – | – | – | – | – | – | – | IC50 (µg/mL), single-round pseudovirus neutralization [21]: 0.001 µg/mL; IC50 (µg/mL), single-round pseudovirus neutralization [22]: 0.204 µg/mL; IC50 (µg/mL), pseudovirus neutralization [23]: 1.28 µg/mL; IC50, single-round pseudovirus neutralization [24]: 11.8 µg/mL; IC50, single-round pseudovirus neutralization [25]: 0.101 µg/mL; IC50, single-round pseudovirus neutralization [26]: 0.247 µg/mL; IC50 (µg/mL), pseudovirus neutralization [27]: 0.051 µg/mL |
